Measurements published in patent US20250197499A1 (STEALTH IO, published 2025).

What was measured:
[1] = target: T1, Recombinant human PD-L1-His tag (ACROBiosystems, #PD1-H5229) (human, UniProt Q9NZQ7 19-238); assay: Octet RED96e; PD-L1-His loaded at 10 µg/ml on HIS1K sensor; sample 588,2 nM
T1 construct: Bought protein; also called sPD-L1; human PD-L1-His tag protein; not shown: His tag
Experimental: (§1) FIG. 3a is a graph of Octet binding studies on sPD-L1. Recombinant human PD-L1-His tag (ACROBiosystems, #PD1-H5229) was loaded to His-sensor (HIS1K (Anti-Penta-His)) at 10 μg/ml and the binding of each construct was evaluated by Octet RED96e.
(§2) FIG. 3c is a graph depicting the KD values of anti-CD28/sPD-1 constructs on human PD-L1-His tag protein by Octet RED96e. The equilibrium dissociation constant (KD) is calculated as the ratio koff/kₒₙ (with koff:dissociation rates, and kₒₙ:association rates).
(§3) Anti-CD28/sPD-1 antibody fusion constructs were assessed for their ability to bind PD-1 ligands, PD-L1 and PD-L2 by Octet RED96e. Recombinant human PD-L1-His tag (ACROBiosystems, #PD1-H5229) or recombinant human PD-L2-His tag (ACROBiosystems, #PD2-H5220) were loaded to His-sensor (HIS1 K (Anti-Penta-His)) at 10 μg/ml. […] FIG. 3c is a summary of affinity (measured as Kd, M) for each construct on human PD-L1. […] FIG. 4c is a summary of affinity (measured as Kd, M) for each construct on human PD-L2.

[2] = target: T2, Recombinant human PD-L2-His tag (ACROBiosystems, #PD2-H5220) (human, UniProt Q9BQ51 20-219); assay: Octet RED96e; PD-L2-His loaded at 10 µg/ml on HIS1K sensor; sample 588,2 nM
T2 construct: Bought protein; also called sPD-L2; human PD-L2-His tag protein; not shown: His tag
T2 sequence (looked up): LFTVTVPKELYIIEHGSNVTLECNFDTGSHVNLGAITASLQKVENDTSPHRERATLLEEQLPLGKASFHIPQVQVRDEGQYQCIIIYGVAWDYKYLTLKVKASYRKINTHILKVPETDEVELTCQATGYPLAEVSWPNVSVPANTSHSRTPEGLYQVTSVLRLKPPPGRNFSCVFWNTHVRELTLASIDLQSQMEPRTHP
Experimental: (§4) FIG. 4a is a graph of Octet binding studies on sPD-L2. Recombinant human PD-L2-His tag (ACROBiosystems, #PD2-H5220) was loaded to His-sensor (HIS1 K (Anti-Penta-His)) at 10 μg/ml and the binding of each construct was evaluated by Octet RED96e.
(§5) FIG. 4c is a graph depicting the KD values of anti-CD28/sPD-1 constructs on human PD-L2-His tag protein by Octet RED96e. The equilibrium dissociation constant (KD) is calculated as the ratio koff/kₒₙ (with koff:dissociation rates, and kₒₙ:association rates).
as §3

[3] = target: T3, Recombinant human sCD28 Fc-fusion protein (PeproTech, #310-34) (human, UniProt P10747 19-152); assay: Octet RED96e; sCD28 Fc-fusion loaded at 2,5 µg/ml on protA sensor; sample 588,2 nM; control without CD28-binding Fab
T3 construct: Bought protein; also called soluble CD28; not shown: Fc part of the bought fusion; not described
Experimental: (§6) FIG. 5a is a graph of Octet binding studies on sCD28. Recombinant human sCD28 Fc-fusion protein (PeproTech, #310-34) was loaded to protA sensor at 2.5 μg/ml and the binding of each construct was evaluated by Octet RED96e.
(§7) FIG. 5c is a graph depicting the KD values of anti-CD28/sPD-1 constructs on human sCD28 Fc-fusion protein by Octet RED96e. The equilibrium dissociation constant (KD) is calculated as the ratio koff/kₒₙ (with koff:dissociation rates, and kₒₙ:association rates).
(§8) Anti-CD28/sPD-1 antibody fusion constructs were assessed for their ability to bind CD28 by Octet RED96e. Recombinant human sCD28 Fc-fusion protein (PeproTech, #310-34) was loaded to protA sensor at 2.5 μg/ml. […] FIG. 5c is a summary of affinity (measured as Kd, M) for each construct on human CD28.

[4] = target: T2, Recombinant human PD-L2-His tag …; assay: Octet RED96e; PD-L2-His loaded at 10 µg/ml on HIS1K sensor; sample 117,6 nM
Experimental: as §4, §5, §3

[5] = target: T3, Recombinant human sCD28 Fc-fusion …; assay: Octet RED96e; sCD28 Fc-fusion loaded at 2,5 µg/ml on protA sensor; sample 117,6 nM; control without CD28-binding Fab
Experimental: as §6, §7, §8

[6] = target: T1, Recombinant human PD-L1-His tag …; assay: Octet RED96e; PD-L1-His loaded at 10 µg/ml on HIS1K sensor; sample 117,6 nM
Experimental: as §1, §2, §3

[7] = target: T1, Recombinant human PD-L1-His tag …; assay: Octet RED96e; PD-L1-His loaded at 10 µg/ml on HIS1K sensor; sample 55,6 nM
Experimental: as §1, §2, §3

[8] = target: T1, Recombinant human PD-L1-His tag …; assay: Octet RED96e; PD-L1-His loaded at 10 µg/ml on HIS1K sensor; sample 277,8 nM
Experimental: as §1, §2, §3

[9] = target: T2, Recombinant human PD-L2-His tag …; assay: Octet RED96e; PD-L2-His loaded at 10 µg/ml on HIS1K sensor; sample 55,6 nM
Experimental: as §4, §5, §3

[10] = target: T2, Recombinant human PD-L2-His tag …; assay: Octet RED96e; PD-L2-His loaded at 10 µg/ml on HIS1K sensor; sample 277,8 nM
Experimental: as §4, §5, §3

[11] = target: T2, Recombinant human PD-L2-His tag …; assay: Octet RED96e, PD-L2-His on HIS1K sensor
Experimental: as §4, §5, §3

[12] = target: T1, Recombinant human PD-L1-His tag …; assay: Octet RED96e, PD-L1-His on HIS1K sensor
Experimental: as §1, §2, §3

B1: nonvalent (or dummy) Fc/sPD-1 mut (Fc fusion)
chain: DKTHTCPPCPAPEFEGGPSVFLFPPKPKDTLMISRTPEVTCVVVDVSHEDPEVKFNWYVDGVEVHNAKTKPREEQYNSTYRVVSVLTVLHQDWLNGKEYKCKVSNKALPASIEKTISKAKGQPREPQVYTLPPSREEMTKNQVSLTCLVKGFYPSDIAVEWESNGQPENNYKTTPPVLDSDGSFFLYSKLTVDKSRWQQGNVFSCSVMHEALHNHYTQKSLSLSPGGGGSGGGGSGGGGSLDSPDRPWNPPTFSPALLVVTEGDNATFTCSFSNTSESFVLNWYRMSPSNQTDKLAAFPEDRSQPGQDCRFRVTQLPNGRDFHMSVVRARRNDSGTYLCSAISLAPYIQIKESLRAELRVTERRAEVPTAHPSPSPRPAGQFQ
notes: also called Fc/sPD-1 mutated; Fc/sPD-1 mutant construct
Question: For B1, which Kd [1] is on record?
Answer: The Kd was 0.00629 nM.

Question: And the koff [1]?
Answer: The koff was 6.93e-07 s⁻¹.

Question: And the kon [1]?
Answer: Its kon is 110000 M⁻¹ s⁻¹.

Question: And the Kd [2]?
Answer: The Kd was 0.0118 nM.

Question: And the koff [2]?
Answer: The koff was 5.99e-07 s⁻¹.

Question: What about the kon [2] of the same binder?
Answer: The kon was 50700 M⁻¹ s⁻¹.

Question: And the Kd [3]?
Answer: Its Kd is 17.8 nM.

Question: And the koff [3]?
Answer: The koff was 0.000107 s⁻¹.

Question: What about the kon [3] of the same binder?
Answer: The kon was 6000 M⁻¹ s⁻¹.

Question: And the Kd [4]?
Answer: The Kd was 1.56 nM.

Question: What about the koff [4] of the same binder?
Answer: Its koff is 0.000461 s⁻¹.

Question: And the kon [4]?
Answer: Its kon is 295000 M⁻¹ s⁻¹.

Question: And the Kd [5]?
Answer: Its Kd is 2950 nM.

Question: What about the koff [5] of the same binder?
Answer: The koff was 0.00204 s⁻¹.

Question: What about the kon [5] of the same binder?
Answer: The kon was 692 M⁻¹ s⁻¹.

Question: What about the Kd [6] of the same binder?
Answer: The Kd was 2.24 nM.

Question: And the koff [6]?
Answer: Its koff is 0.00132 s⁻¹.

Question: And the kon [6]?
Answer: The kon was 588000 M⁻¹ s⁻¹.

B2: bivalent anti-CD28/sPD-1 wt (bispecific antibody, human IgG1, kappa)
light: DIELTQSPASLAVSLGQRATISCRASESVEYYVTSLMQWYQQKPGQPPKLLIFAASNVESGVPARFSGSGSGTNFSLNIHPVDEDDVAMYFCQQSRKVPYTFGGGTKLEIKRTVAAPSVFIFPPSDEQLKSGTASVVCLLNNFYPREAKVQWKVDNALQSGNSQESVTEQDSKDSTYSLSSTLTLSKADYEKHKVYACEVTHQGLSSPVTKSFNRGEC
heavy: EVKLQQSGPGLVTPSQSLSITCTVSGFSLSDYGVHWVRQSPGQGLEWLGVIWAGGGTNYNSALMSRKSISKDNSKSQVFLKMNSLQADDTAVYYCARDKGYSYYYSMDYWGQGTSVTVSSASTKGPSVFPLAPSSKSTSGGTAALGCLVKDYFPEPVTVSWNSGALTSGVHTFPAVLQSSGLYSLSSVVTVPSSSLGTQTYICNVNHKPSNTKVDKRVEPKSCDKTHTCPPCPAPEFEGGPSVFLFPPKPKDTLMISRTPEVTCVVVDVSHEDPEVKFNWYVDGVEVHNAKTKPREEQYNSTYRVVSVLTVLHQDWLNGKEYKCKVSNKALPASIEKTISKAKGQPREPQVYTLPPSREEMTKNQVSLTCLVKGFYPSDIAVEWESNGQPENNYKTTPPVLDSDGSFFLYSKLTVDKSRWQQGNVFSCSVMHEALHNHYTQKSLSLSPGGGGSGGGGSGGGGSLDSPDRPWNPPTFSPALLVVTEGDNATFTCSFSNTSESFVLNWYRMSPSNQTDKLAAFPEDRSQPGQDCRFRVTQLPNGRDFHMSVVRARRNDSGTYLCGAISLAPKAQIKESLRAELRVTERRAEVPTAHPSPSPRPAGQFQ
notes: Two Fabs of clone 9.3 against CD28, two wild-type sPD-1 fragments; also called Bivalent anti-CD28/sPD-1 Wild type structure; bispecific protein complex A:B-C-X:D-C'-Y
Question: How did the Kd [7] turn out when B2 was run?
Answer: The Kd was 21.7 nM.

Question: What about the koff [7] of the same binder?
Answer: The koff was 0.0133 s⁻¹.

Question: What about the kon [7] of the same binder?
Answer: The kon was 614000 M⁻¹ s⁻¹.

Question: What about the Kd [8] of the same binder?
Answer: Its Kd is 37.5 nM.

Question: What about the koff [8] of the same binder?
Answer: The koff was 0.0159 s⁻¹.

Question: What about the kon [8] of the same binder?
Answer: Its kon is 423000 M⁻¹ s⁻¹.

Question: What about the Kd [9] of the same binder?
Answer: The Kd was 7.73 nM.

Question: And the koff [9]?
Answer: The koff was 0.00268 s⁻¹.

Question: And the kon [9]?
Answer: The kon was 347000 M⁻¹ s⁻¹.

Question: What about the Kd [10] of the same binder?
Answer: The Kd was 18.1 nM.

Question: And the koff [10]?
Answer: The koff was 0.00314 s⁻¹.

Question: And the kon [10]?
Answer: Its kon is 174000 M⁻¹ s⁻¹.

Question: What about the Kd [11] of the same binder?
Answer: Its Kd is ~10 nM.

Question: And the Kd [12]?
Answer: The Kd was ~10 nM.
